Test results taken from article PMC11169713 (Frontiers in Immunology, 2024).
Changes are numbered by the printed parent chain.

Key:
[1] = target: biotinylated H5 A/Indonesia/5/2005 hemagglutinin (Influenza A virus A/Indonesia/5/2005 …, UniProt A5A5L7, strain, biotin (site not stated))
[2] = target: biotinylated H1 A/California/04/2009 hemagglutinin (Influenza A virus A/California/04/2009 …, UniProt C3W5S1, strain, biotin (site not stated))
[3] = target: biotinylated H7 A/Shanghai/02/2013 hemagglutinin (Influenza A virus A/Shanghai/02/2013 …, UniProt R4NN21, strain, biotin (site not stated))

Measured: binding result

B1: L5A7.1 (antibody, V domains shown)
VH: QVQLQQSGPGLVKPSQTLSLTCVISGDSVSSNSAAWDWIRQSPSRGLEWLGRTYYRSKWYSDYAVSVKSRITITPDTSKNQFSLHLNSVTPEDTAVYYCARAGVRIFGVIVDSLDYWGQGTLVTVSS
VL: AIQLTQSPSSLSASVGDRVTITCRASQALNSYLAWYQQKPGKAPKLLIFAASTLQSGVPSRFSGSGSGTDFTLTISSLQPEDFATYYCQLSKTFGPGTRVDIE
binds: [1] | [2] | [3]

B2: L5A7.4 (antibody, V domains shown)
VH: QVQLQQSGPRLVKPSQTLSLTCAISGDSVSSTSAAWDWIRQSSSRGLEWLGRTYYRSRWYHDYEESVKSRITINADTSKNQFSLQLASVTPEDTAVYYCARAGIRVFGIIVDSLDYWGQGSLVTVSS
VL: B1 VL with A28G, L29F, K45E, F49Y, L90Q, R99K, E103K
binds: [1] | [2] | [3]

B3: L5A7.2 (antibody, V domains shown)
VH: B1 VH with S42T, H85R, I106V
VL: B1 VL with A28G, L29F, N30S, K45Q, F49Y, L90Q
binds: [1] | [2] | [3]

B4: L5A7.3 (antibody, V domains shown)
VH: B1 VH with S33T, K58R, V65D, V104I, V109I
VL: B1 VL with A28G, L29A, F49Y, T72S, L90E
binds: [1] | [2] | [3]
